Laboratory results published in PMC4228062.

Biological target: recombinant galectin-7 R74S (human)
Assay: native gel or EMSA; recombinant gal-7 (wild type or R74S) on a native gel, detected by immunoblot; monomeric and dimeric forms

Substance: recombinant galectin-7 R74S (natural protein)
- stoichiometry N: 2
